Data: IntAct's records for PubMed 24366543

B1: Nuclear factor erythroid 2-related factor 2 (Mus musculus), Q60795 (parent)
chain: MMDLELPPPGLQSQQDMDLIDILWRQDIDLGVSREVFDFSQRQKDYELEKQKKLEKERQEQLQKEQEKAFFAQFQLDEETGEFLPIQPAQHIQTDTSGSASYSQVAHIPKQDALYFEDCMQLLAETFPFVDDHESLALDIPSHAESSVFTAPHQAQSLNSSLEAAMTDLSSIEQDMEQVWQELFSIPELQCLNTENKQLADTTAVPSPEATLTEMDSNYHFYSSISSLEKEVGNCGPHFLHGFEDSFSSILSTDDASQLTSLDSNPTLNTDFGDEFYSAFIAEPSDGGSMPSSAAISQSLSELLDGTIEGCDLSLCKAFNPKHAEGTMEFNDSDSGISLNTSPSRASPEHSVESSIYGDPPPGFSDSEMEELDSAPGSVKQNGPKAQPAHSPGDTVQPLSPAQGHSAPMRESQCENTTKKEVPVSPGHQKAPFTKDKHSSRLEAHLTRDELRAKALHIPFPVEKIINLPVDDFNEMMSKEQFNEAQLALIRDIRRRGKNKVAAQNCRKRKLENIVELEQDLGHLKDEREKLLREKGENDRNLHLLKRRLSTLYLEVFSMLRDEDGKPYSPSEYSLQQTRDGNVFLVPKSKKPDTKKN

Variants of: B1
Conditions: with keap1_mouse Keap1, Q9Z2X8
Sequence of keap1_mouse Keap1, Q9Z2X8 (Q9Z2X8 whole entry): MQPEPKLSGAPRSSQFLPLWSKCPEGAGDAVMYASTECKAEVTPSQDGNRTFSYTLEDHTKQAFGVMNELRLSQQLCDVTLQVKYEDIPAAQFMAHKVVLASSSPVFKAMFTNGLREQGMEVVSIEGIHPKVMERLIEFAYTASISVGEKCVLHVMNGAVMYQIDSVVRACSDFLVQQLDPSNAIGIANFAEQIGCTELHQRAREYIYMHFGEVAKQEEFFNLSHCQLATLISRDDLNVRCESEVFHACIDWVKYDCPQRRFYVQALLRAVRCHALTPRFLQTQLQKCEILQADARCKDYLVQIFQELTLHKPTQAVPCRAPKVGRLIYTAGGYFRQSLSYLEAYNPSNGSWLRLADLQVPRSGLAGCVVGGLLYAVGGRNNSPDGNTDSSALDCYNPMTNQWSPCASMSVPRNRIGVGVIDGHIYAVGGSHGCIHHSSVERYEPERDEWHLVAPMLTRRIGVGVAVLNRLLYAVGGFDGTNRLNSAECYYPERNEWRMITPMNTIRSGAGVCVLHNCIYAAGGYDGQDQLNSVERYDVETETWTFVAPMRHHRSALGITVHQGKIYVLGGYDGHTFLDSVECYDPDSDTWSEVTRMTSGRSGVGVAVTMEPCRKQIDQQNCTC

Row | effect of a mutation on the interaction | Variant
1 | disrupting interaction | MMDLELPPPGLQSQQDMDLIDILWREDIDLGVSREVFDFSQRQKDYELEKQKKLEKERQEQLQKEQEKAFFAQFQLDEETGEFLPIQPAQHIQTDTSGSASYSQVAHIPKQDALYFEDCMQLLAETFPFVDDHESLALDIPSHAESSVFTAPHQAQSLNSSLEAAMTDLSSIEQDMEQVWQELFSIPELQCLNTENKQLADTTAVPSPEATLTEMDSNYHFYSSISSLEKEVGNCGPHFLHGFEDSFSSILSTDDASQLTSLDSNPTLNTDFGDEFYSAFIAEPSDGGSMPSSAAISQSLSELLDGTIEGCDLSLCKAFNPKHAEGTMEFNDSDSGISLNTSPSRASPEHSVESSIYGDPPPGFSDSEMEELDSAPGSVKQNGPKAQPAHSPGDTVQPLSPAQGHSAPMRESQCENTTKKEVPVSPGHQKAPFTKDKHSSRLEAHLTRDELRAKALHIPFPVEKIINLPVDDFNEMMSKEQFNEAQLALIRDIRRRGKNKVAAQNCRKRKLENIVELEQDLGHLKDEREKLLREKGENDRNLHLLKRRLSTLYLEVFSMLRDEDGKPYSPSEYSLQQTRDGNVFLVPKSKKPDTKKN [Q26E]

Variants of: B1
Conditions: with keap1_mouse Keap1, Q9Z2X8
Remark: another data set of the same source

Row | effect of a mutation on the interaction | Variant
2 | disrupting interaction | MMDLELPPPGLQSQQDMDLIDILWRQDTDLGVSREVFDFSQRQKDYELEKQKKLEKERQEQLQKEQEKAFFAQFQLDEETGEFLPIQPAQHIQTDTSGSASYSQVAHIPKQDALYFEDCMQLLAETFPFVDDHESLALDIPSHAESSVFTAPHQAQSLNSSLEAAMTDLSSIEQDMEQVWQELFSIPELQCLNTENKQLADTTAVPSPEATLTEMDSNYHFYSSISSLEKEVGNCGPHFLHGFEDSFSSILSTDDASQLTSLDSNPTLNTDFGDEFYSAFIAEPSDGGSMPSSAAISQSLSELLDGTIEGCDLSLCKAFNPKHAEGTMEFNDSDSGISLNTSPSRASPEHSVESSIYGDPPPGFSDSEMEELDSAPGSVKQNGPKAQPAHSPGDTVQPLSPAQGHSAPMRESQCENTTKKEVPVSPGHQKAPFTKDKHSSRLEAHLTRDELRAKALHIPFPVEKIINLPVDDFNEMMSKEQFNEAQLALIRDIRRRGKNKVAAQNCRKRKLENIVELEQDLGHLKDEREKLLREKGENDRNLHLLKRRLSTLYLEVFSMLRDEDGKPYSPSEYSLQQTRDGNVFLVPKSKKPDTKKN [I28T]

Variants of: B1
Conditions: with keap1_mouse Keap1, Q9Z2X8
Remark: another data set of the same source

Row | effect of a mutation on the interaction | Variant
3 | disrupting interaction | MMDLELPPPGLQSQQDMDLIDILWRQDIDLGGSREVFDFSQRQKDYELEKQKKLEKERQEQLQKEQEKAFFAQFQLDEETGEFLPIQPAQHIQTDTSGSASYSQVAHIPKQDALYFEDCMQLLAETFPFVDDHESLALDIPSHAESSVFTAPHQAQSLNSSLEAAMTDLSSIEQDMEQVWQELFSIPELQCLNTENKQLADTTAVPSPEATLTEMDSNYHFYSSISSLEKEVGNCGPHFLHGFEDSFSSILSTDDASQLTSLDSNPTLNTDFGDEFYSAFIAEPSDGGSMPSSAAISQSLSELLDGTIEGCDLSLCKAFNPKHAEGTMEFNDSDSGISLNTSPSRASPEHSVESSIYGDPPPGFSDSEMEELDSAPGSVKQNGPKAQPAHSPGDTVQPLSPAQGHSAPMRESQCENTTKKEVPVSPGHQKAPFTKDKHSSRLEAHLTRDELRAKALHIPFPVEKIINLPVDDFNEMMSKEQFNEAQLALIRDIRRRGKNKVAAQNCRKRKLENIVELEQDLGHLKDEREKLLREKGENDRNLHLLKRRLSTLYLEVFSMLRDEDGKPYSPSEYSLQQTRDGNVFLVPKSKKPDTKKN [V32G]

Variants of: B1
Conditions: with keap1_mouse Keap1, Q9Z2X8
Remark: another data set of the same source

Row | effect of a mutation on the interaction | Variant
4 | disrupting interaction | MMDLELPPPGLQSQQDMDLIDILWRQYIDLGVSREVFDFSQRQKDYELEKQKKLEKERQEQLQKEQEKAFFAQFQLDEETGEFLPIQPAQHIQTDTSGSASYSQVAHIPKQDALYFEDCMQLLAETFPFVDDHESLALDIPSHAESSVFTAPHQAQSLNSSLEAAMTDLSSIEQDMEQVWQELFSIPELQCLNTENKQLADTTAVPSPEATLTEMDSNYHFYSSISSLEKEVGNCGPHFLHGFEDSFSSILSTDDASQLTSLDSNPTLNTDFGDEFYSAFIAEPSDGGSMPSSAAISQSLSELLDGTIEGCDLSLCKAFNPKHAEGTMEFNDSDSGISLNTSPSRASPEHSVESSIYGDPPPGFSDSEMEELDSAPGSVKQNGPKAQPAHSPGDTVQPLSPAQGHSAPMRESQCENTTKKEVPVSPGHQKAPFTKDKHSSRLEAHLTRDELRAKALHIPFPVEKIINLPVDDFNEMMSKEQFNEAQLALIRDIRRRGKNKVAAQNCRKRKLENIVELEQDLGHLKDEREKLLREKGENDRNLHLLKRRLSTLYLEVFSMLRDEDGKPYSPSEYSLQQTRDGNVFLVPKSKKPDTKKN [D27Y]

Variants of: B1
Conditions: with keap1_mouse Keap1, Q9Z2X8
Remark: another data set of the same source

Row | effect of a mutation on the interaction | Variant
5 | disrupting interaction | MMDLELPPPGLQSQQDMDLIDILCRQDIDLGVSREVFDFSQRQKDYELEKQKKLEKERQEQLQKEQEKAFFAQFQLDEETGEFLPIQPAQHIQTDTSGSASYSQVAHIPKQDALYFEDCMQLLAETFPFVDDHESLALDIPSHAESSVFTAPHQAQSLNSSLEAAMTDLSSIEQDMEQVWQELFSIPELQCLNTENKQLADTTAVPSPEATLTEMDSNYHFYSSISSLEKEVGNCGPHFLHGFEDSFSSILSTDDASQLTSLDSNPTLNTDFGDEFYSAFIAEPSDGGSMPSSAAISQSLSELLDGTIEGCDLSLCKAFNPKHAEGTMEFNDSDSGISLNTSPSRASPEHSVESSIYGDPPPGFSDSEMEELDSAPGSVKQNGPKAQPAHSPGDTVQPLSPAQGHSAPMRESQCENTTKKEVPVSPGHQKAPFTKDKHSSRLEAHLTRDELRAKALHIPFPVEKIINLPVDDFNEMMSKEQFNEAQLALIRDIRRRGKNKVAAQNCRKRKLENIVELEQDLGHLKDEREKLLREKGENDRNLHLLKRRLSTLYLEVFSMLRDEDGKPYSPSEYSLQQTRDGNVFLVPKSKKPDTKKN [W24C]
